The test system of data set [1] is dexamethasone-inducible Cdc25 gene. Nature of the data set: Induction of Cdc25 mRNA and protein (northern and western blot). Format: cell-based, N. plumbaginifolia. The note with it: inducible cell lines; 12 h induction. Here is the method: FIG. 1a is a copy of a photographic representation of a northern blot hybridisation showing the induction of Cdc25 mRNA in tobacco cells containing a dexamethasone-inducible Cdc25 gene, in the absence of exogenous cytokinin. […] Total RNA was extracted from tobacco cells either in the absence of added dexamethasone (lane 0), or after 12 h induction with […], or 0.10 μM, or 1.00 μM, or 10.00 μM dexamethasone and then loaded onto agarose gels (60 μg aliquots RNA per lane), transferred to membrane support and probed with a Cdc25-specific probe.
FIG. 1b is a copy of a photographic representation of a western blot showing the induction of p67^Cdc25 protein in tobacco cells containing a dexamethasone-inducible Cdc25 gene, in the absence of exogenous cytokinin. […] Total protein was extracted from tobacco cells either in the absence of added dexamethasone (lane 1), or after 12 h induction with 0.01 μM dexamethasone (Lane 2), or 0.10 μM dexamethasone (Lane 3), or 1.00 μM dexamethasone (Lane 4), or 10.00 µM dexamethasone (Lane 5) and then loaded onto SDS/polyacrylamide gels ([…] aliquots total soluble p67^cdc25 protein per lane), transferred to membrane support and probed with antibody specific for the Cdc25-specific probe. p67^Cdc25 was detected by western blot of 50 μg aliquots of total soluble p67^Cdc25 protein. […]
(Immunoblotting shows a protein as a band on a membrane.)

Data set [2] concerns tobacco cells containing a dexamethasone-inducible Cdc25 gene. As to conditions: auxin only.
For data set [3], the system named is tobacco Cdc2 protein, designated Cdc2a.
For data set [4], the target named is tyrosine phosphorylated Cdc2 from arrested Cdc25-22 mutant fission yeast, P04551.
Data set [5] has as its target tobacco Cdc2 protein, designated Cdc2a. This is another data set of the same source.
The subject of the next data set is plant Cdc2 enzyme. As to the kind of experiment: In vitro activation of plant Cdc2 histone kinase by GST-Cdc25. Format: biochemical, tobacco. An excerpt:
FIG. 2e is a graphical representation showing the change in activity of Cdc2 histone kinase in transgenic tobacco cells containing a dexamethasone-inducible Cdc25 gene, progressing from the late G2 phase hormonal control point into division and following their stimulation with cytokinin. The Cdc2 histone kinase was purified using p13^suc1 beads and treated with GST-Cdc25 fusion protein that had been produced in Escherichia coli cells.
Both Cdc2 and Cdc25 enzyme activities were extracted from tobacco cells, by grinding the cells in liquid nitrogen. For Cdc2 extraction, NDE buffer containing 25 mM HEPES (pH 7.2) with protease and phosphatase inhibitors was used. For Cdc25 extraction, PDE buffer, containing 25 mM MOPS (pH 7.2), 100 mM NaCl, 10 mM DTT, 5 mM EDTA, 1mM EGTA, 1% NP-40, 50 mM NaF, 0.5 mM PMSF, 3 μg ml^−1 leupeptin, and 20 μg ml^−1 aprotinin, was used.
To measure Cdc2 activity, the phosphorylation of H1 histone was followed.
We tested this by investigating whether Cdc25 enzyme could activate Cdc2 from cells in prophase and whether the extent of activation by Cdc25 declined when activation had already occurred in vivo. […] After 12 hours, Cdc2 activity declined during anaphase and the enzyme then became unresponsive to GST-Cdc25, consistent with the anaphase decline in activity being due to proteolysis of cyclin, as observed for cyclin 1b in maize mitosis.

tyrosine phosphorylated Cdc2 from arrested Cdc25-22 mutant fission yeast, P04551, sequence (P04551 whole entry, looked up, change not shown, tested part not stated): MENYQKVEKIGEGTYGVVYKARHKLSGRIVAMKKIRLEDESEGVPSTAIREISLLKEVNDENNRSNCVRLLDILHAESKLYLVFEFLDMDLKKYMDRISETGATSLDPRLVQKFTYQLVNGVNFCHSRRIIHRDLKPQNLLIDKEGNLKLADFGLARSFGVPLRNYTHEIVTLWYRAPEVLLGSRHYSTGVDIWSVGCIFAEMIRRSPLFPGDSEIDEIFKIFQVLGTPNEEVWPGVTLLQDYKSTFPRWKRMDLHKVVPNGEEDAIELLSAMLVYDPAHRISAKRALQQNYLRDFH

For the molecule `C[C@@H]1C[C@H]2[C@@H]3CCC4=CC(=O)C=C[C@]4(C)[C@@]3(F)[C@@H](O)C[C@]2(C)[C@@]1(O)C(=O)CO` [dexamethasone], in data set [1], the “concentration at which Cdc25 mRNA and protein accumulated” value was in the range of 0.01 to 10 µM. Further, the “dexamethasone concentration that induced division” value in data set [2] (cells arrested at G2 phase hormonal control point, no cytokinin, 12 h induction) fell in the range of 0.01 to 10 µM. Besides, in data set [2] (independent clones, G2-arrested cells), the “optimum concentration for induction of division” value worked out at 0.1 µM.
Turning to “plant Cdc25 protein (67 kDa tobacco protein)”, the “Cdc2 histone kinase activity after incubation with immunoprecipitated Cdc25” value in data set [3] is “non-transgenic plant cells also contain a Cdc25 activity, unambiguously of plant origin, that is both present following cytokinin stimulation and capable of activating plant Cdc2”.

B1: fission yeast Cdc25 phosphoprotein phosphatase expressed in transgenic tobacco cells (protein)
chain: MDSPLSSLSFTNTLSGKRNVLRPAARELKLMSDRNANQELDFFFPKSKHIASTLVDPFGKTCSTASPASSLAADMSMNMHIDESPALPTPRRTLFRSLSCTVETPLANKTIVSPLPESPSNDALTESYFFRQPASKYSITQDSPRVSSTIAYSFKPKASIALNTTKSEATRSSLSSSSFDSYLRPNVSRSRSSGNAPPFLRSRSSSSYSINKKKGTSGGQATRHLTYALSRTCSQSSNTTSLLESCLTDDTDDFELMSDHEDTFTMGKVADLPESSVELVEDAASIQRPNSDFGACNDNSLDDLFQASPIKPIDMLPKINKDIAFPSLKVRSPSPMAFAMQEDAEYDEQDTPVLRRTQSMFLNSTRLGLFKSQDLVCVTPKQSTKESERFISSHVEDLSLPCFAVKEDSLKRITQETLLGLLDGKFKDIFDKCIIIDCRFEYEYLGGHISTAVNLNTKQAIVDAFLSKPLTHRVALVFHCEHSAHRAPHLALHFRNTDRRMNSHRYPFLYYPEVYILHGGYKSFYENHKNRCDPINYVPMNDASHVMTCTKAMNNFKRNATFMRTKSYTFGQSVLASPDVNDSPTAMHSLSTLRRF
Turning to B1, the “activation of yeast Cdc2 H1 histone kinase (phosphorylation of H1 histone)” value in data set [4] is “appearance of Cdc25 activity, which was detected by its activation of yeast Cdc2 Hi histone kinase”.

B2: GST-Cdc25 catalytic core fusion protein synthesised in Escherichia coli (protein)
chain: SSHVEDLSLPCFAVKEDSLKRITQETLLGLLDGKFKDIFDKCIIIDCRFEYEYLGGHISTAVNLNTKQAIVDAFLSKPLTHRVALVFHCEHSAHRAPHLALHFRNTDRRMNSHRYPFLYYPEVYILHGGYKSFYENHKNRCDPINYVPMNDASHVMTCTKAMNNFKRNATFMRTKSYTFGQSVLASPDVNDSPTAMHSLSTLRRF
Take B2: in data set [5], the “Cdc2 histone kinase activity after treatment with GST-Cdc25” value is “excess bacterially-synthesised GST-Cdc25 could activate plant Cdc2 enzyme that was extracted in prophase between 3 hours and 12 hours”.

B3: GST-Cdc25: recombinant GST-Cdc25 catalytic core fusion protein synthesised in Escherichia coli (protein)
chain: SSHVEDLSLPCFAVKEDSLKRITQETLLGLLDGKFKDIFDKCIIIDCRFEYEYLGGHISTAVNLNTKQAIVDAFLSKPLTHRVALVFHCEHSAHRAPHLALHFRNTDRRMNSHRYPFLYYPEVYILHGGYKSFYENHKNRCDPINYVPMNDASHVMTCTKAMNNFKRNATFMRTKSYTFGQSVLASPDVNDSPTAMHSLSTLRRF
modifications: left off: a dimerising Fc or GST
notes: recombinant GST-Cdc25 catalytic core fusion protein synthesised in Escherichia coli
For the molecule B3, in the data set on plant Cdc2 enzyme (Cdc2 extracted after 12 hours), the “response of Cdc2 to GST-Cdc25 in anaphase” value is listed as “unresponsive”. For the same molecule, the “activation of plant Cdc2 enzyme” value in the data set on plant Cdc2 enzyme (excess bacterially-synthesised GST-Cdc25, Cdc2 extracted in prophase between 3 hours and 12 hours) is listed as “could activate plant Cdc2 enzyme”.

Values taken from patent US20030172404A1, “Method of modifying plant characters by the targeted expression of a cell cycle control protein” (priority 1999, published 2003).
